This series has as its system Escherichia coli TOP10. In words: shrunken log2 fold change of peptide-encoding DNA abundance (4.5 h post-induction vs induction); higher = less antimicrobial activity (less host growth inhibition). The conditions noted are these: time post-induction: 4.5 h; library: site-saturation at positions 5, 18, 19, 20.
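Further: peptides expressed intracellularly from a pBAD plasmid library in pooled LB shake-flask culture, induced with 0.3% L-arabinose, DNA abundance read by NGS, three biological replicates, DESeq2 with apeglm shrinkage.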

For RRIRRRPPRLPRPRPRPKYEPRP, the “shrunken log2 fold change” value was 0.811.
Turning to RRIRQRPPRLPRPRPRPGTNPRP, the “shrunken log2 fold change” value was -0.0906.
As to RRIRCRPPRLPRPRPRPAPRPRP, the “shrunken log2 fold change” value was determined as 0.915.
Consider RRIRQRPPRLPRPRPRPDDIPRP, for which the “shrunken log2 fold change” value was -0.0246.
Regarding RRIRNRPPRLPRPRPRPLSCPRP, the “shrunken log2 fold change” value was -0.238.
With RRIRCRPPRLPRPRPRPGQHPRP, the “shrunken log2 fold change” value turned out to be 0.00766.
With RRIRARPPRLPRPRPRPPWDPRP, the “shrunken log2 fold change” value amounted to 0.72.
In the case of RRIRHRPPRLPRPRPRPHCPPRP it was -0.207.
RRIRSRPPRLPRPRPRPPFTPRP: the “shrunken log2 fold change” value is -0.00795.
RRIRSRPPRLPRPRPRPAKSPRP: the “shrunken log2 fold change” value turned out to be 0.0744.
On to RRIRKRPPRLPRPRPRPMYTPRP, for which the “shrunken log2 fold change” value is -0.0983.
In the case of RRIRERPPRLPRPRPRPWPMPRP it was 0.00819.
On to RRIRGRPPRLPRPRPRPVSHPRP, for which the “shrunken log2 fold change” value was found to be 0.389.
The figure for RRIRKRPPRLPRPRPRPDSVPRP is 0.0996; for RRIRERPPRLPRPRPRPSTRPRP it is -0.232.
For the sequence RRIRVRPPRLPRPRPRPVNIPRP, the “shrunken log2 fold change” value was -0.584.
In the case of RRIRSRPPRLPRPRPRPHKDPRP it was -0.534.
In the case of RRIRHRPPRLPRPRPRPHVFPRP it was -0.0684.
Regarding RRIRGRPPRLPRPRPRPKCRPRP, the “shrunken log2 fold change” value came out at 0.299.
In the case of RRIRERPPRLPRPRPRPEENPRP it was 0.127.
RRIRFRPPRLPRPRPRPFTGPRP: the “shrunken log2 fold change” value was -0.246.
Take RRIRGRPPRLPRPRPRPQIWPRP: the “shrunken log2 fold change” value came out at 0.293.
Take RRIRIRPPRLPRPRPRPHHHPRP: the “shrunken log2 fold change” value is -0.719.
Take RRIRVRPPRLPRPRPRPFNTPRP: the “shrunken log2 fold change” value came out at 2.64.
As to RRIRKRPPRLPRPRPRPWLQPRP, the “shrunken log2 fold change” value was -0.0256.
As to RRIRDRPPRLPRPRPRPIPEPRP, the “shrunken log2 fold change” value is -0.138.
As to RRIRCRPPRLPRPRPRPNEPPRP, the “shrunken log2 fold change” value turned out to be 0.0197.
RRIRMRPPRLPRPRPRPIFYPRP: the “shrunken log2 fold change” value was -0.106.
Consider RRIRKRPPRLPRPRPRPPIYPRP, for which the “shrunken log2 fold change” value stood at 0.0758.
With RRIRWRPPRLPRPRPRPWSQPRP, the “shrunken log2 fold change” value was determined as 0.298.
On to RRIRHRPPRLPRPRPRPCNKPRP, for which the “shrunken log2 fold change” value is -0.395.
Turning to RRIRVRPPRLPRPRPRPEWPPRP, the “shrunken log2 fold change” value is 0.225.
RRIRARPPRLPRPRPRPLPYPRP: the “shrunken log2 fold change” value is 0.0356.
In the case of RRIRGRPPRLPRPRPRPTQPPRP it was 1.12; in that of RRIRHRPPRLPRPRPRPHDIPRP, 0.0564; in that of RRIRGRPPRLPRPRPRPWRLPRP, -0.0196.
Consider RRIRARPPRLPRPRPRPTKHPRP, for which the “shrunken log2 fold change” value turned out to be 0.217.
The figure for RRIRYRPPRLPRPRPRPSSSPRP is -0.166.
Consider RRIRARPPRLPRPRPRPGRAPRP, for which the “shrunken log2 fold change” value came out at 0.731.
With RRIRLRPPRLPRPRPRPQFRPRP, the “shrunken log2 fold change” value is -0.244.
The figure for RRIRYRPPRLPRPRPRPYAPPRP is -0.784; for RRIRTRPPRLPRPRPRPFNMPRP it is -0.692.
As for RRIRTRPPRLPRPRPRPYPYPRP, the “shrunken log2 fold change” value was -0.0787.
Take RRIRYRPPRLPRPRPRPVTVPRP: the “shrunken log2 fold change” value was -0.302.
Take RRIRRRPPRLPRPRPRPEKSPRP: the “shrunken log2 fold change” value is 0.0868.
As to RRIRTRPPRLPRPRPRPQIYPRP, the “shrunken log2 fold change” value is -0.179.
RRIRERPPRLPRPRPRPFDRPRP: the “shrunken log2 fold change” value is -0.0163.
Turning to RRIRKRPPRLPRPRPRPGARPRP, the “shrunken log2 fold change” value came to 0.962.
The figure for RRIRERPPRLPRPRPRPCHSPRP is -0.0339; for RRIRMRPPRLPRPRPRPGTRPRP it is 0.675.
In the case of RRIRVRPPRLPRPRPRPKYAPRP, the “shrunken log2 fold change” value is -0.236.
For RRIRIRPPRLPRPRPRPYVCPRP, the “shrunken log2 fold change” value was determined as 0.0199.
As to RRIRTRPPRLPRPRPRPKDNPRP, the “shrunken log2 fold change” value was -0.5.
Regarding RRIRTRPPRLPRPRPRPIVHPRP, the “shrunken log2 fold change” value is -0.0385.
With RRIRPRPPRLPRPRPRPQMWPRP, the “shrunken log2 fold change” value is 0.0355.
With RRIRNRPPRLPRPRPRPQVTPRP, the “shrunken log2 fold change” value is -0.134.
On to RRIRNRPPRLPRPRPRPTTWPRP, for which the “shrunken log2 fold change” value is -0.246.
Regarding RRIRSRPPRLPRPRPRPETWPRP, the “shrunken log2 fold change” value is -0.0382.
The figure for RRIRWRPPRLPRPRPRPCVKPRP is -0.0416; for RRIRYRPPRLPRPRPRPMFFPRP it is -0.618.
For RRIRARPPRLPRPRPRPKQEPRP, the “shrunken log2 fold change” value is 0.254.
In the case of RRIRPRPPRLPRPRPRPYTWPRP, the “shrunken log2 fold change” value was -0.446.
RRIRSRPPRLPRPRPRPFANPRP: the “shrunken log2 fold change” value was -0.0026.
The figure for RRIRHRPPRLPRPRPRPTIFPRP is -0.0675; for RRIRPRPPRLPRPRPRPIFGPRP it is 0.0562.
For RRIRHRPPRLPRPRPRPWKVPRP, the “shrunken log2 fold change” value was -0.0338.
Turning to RRIRVRPPRLPRPRPRPCAYPRP, the “shrunken log2 fold change” value is -0.336.
Take RRIRTRPPRLPRPRPRPLWWPRP: the “shrunken log2 fold change” value worked out at 0.546.
For the sequence RRIRHRPPRLPRPRPRPKHNPRP, the “shrunken log2 fold change” value was 0.196.
On to RRIRPRPPRLPRPRPRPFCIPRP, for which the “shrunken log2 fold change” value is -0.463.
In the case of RRIRWRPPRLPRPRPRPWMNPRP, the “shrunken log2 fold change” value was -0.287.
In the case of RRIRHRPPRLPRPRPRPGKLPRP it was 0.169; in that of RRIRFRPPRLPRPRPRPIQSPRP, -0.127.
Turning to RRIRHRPPRLPRPRPRPHIEPRP, the “shrunken log2 fold change” value stood at 0.032.
The figure for RRIRKRPPRLPRPRPRPNWYPRP is -0.185.
For the sequence RRIRFRPPRLPRPRPRPNGWPRP, the “shrunken log2 fold change” value stood at 0.0579.
In the case of RRIRHRPPRLPRPRPRPQPCPRP it was 0.0971; in that of RRIRSRPPRLPRPRPRPFWEPRP, 0.0122.
Take RRIRYRPPRLPRPRPRPTMRPRP: the “shrunken log2 fold change” value is 0.243.
For RRIRYRPPRLPRPRPRPTKSPRP, the “shrunken log2 fold change” value is -0.517.
Take RRIRFRPPRLPRPRPRPSICPRP: the “shrunken log2 fold change” value was -0.636.
Consider RRIRLRPPRLPRPRPRPASAPRP, for which the “shrunken log2 fold change” value came out at 0.202.
As to RRIRKRPPRLPRPRPRPQIAPRP, the “shrunken log2 fold change” value was -0.11.
For the sequence RRIRVRPPRLPRPRPRPSELPRP, the “shrunken log2 fold change” value was -0.157.
As for RRIRARPPRLPRPRPRPYRIPRP, the “shrunken log2 fold change” value came out at 0.11.
On to RRIRLRPPRLPRPRPRPFEEPRP, for which the “shrunken log2 fold change” value was found to be 0.127.
RRIRPRPPRLPRPRPRPNCIPRP: the “shrunken log2 fold change” value is -0.134.
Regarding RRIRNRPPRLPRPRPRPFHHPRP, the “shrunken log2 fold change” value was -0.27.
In the case of RRIRQRPPRLPRPRPRPGSKPRP, the “shrunken log2 fold change” value is -0.00453.
RRIRVRPPRLPRPRPRPCRCPRP: the “shrunken log2 fold change” value was -0.239.
On to RRIRCRPPRLPRPRPRPLLTPRP, for which the “shrunken log2 fold change” value was 0.00188.
The figure for RRIRPRPPRLPRPRPRPTMPPRP is -0.144; for RRIRSRPPRLPRPRPRPEKIPRP it is -0.0469.
Turning to RRIRWRPPRLPRPRPRPAWWPRP, the “shrunken log2 fold change” value turned out to be 0.691.
As to RRIRNRPPRLPRPRPRPCTYPRP, the “shrunken log2 fold change” value stood at 0.05.
In the case of RRIRCRPPRLPRPRPRPYNSPRP it was -0.325; in that of RRIRWRPPRLPRPRPRPRFDPRP, 0.147; in that of RRIRCRPPRLPRPRPRPFDNPRP, -0.437.
In the case of RRIRMRPPRLPRPRPRPWYIPRP, the “shrunken log2 fold change” value was -0.167.
As to RRIRLRPPRLPRPRPRPFWAPRP, the “shrunken log2 fold change” value stood at 0.0214.
As for RRIRMRPPRLPRPRPRPPIGPRP, the “shrunken log2 fold change” value worked out at 0.161.
The figure for RRIRFRPPRLPRPRPRPCVFPRP is -0.0936.
The figure for RRIRKRPPRLPRPRPRPSQDPRP is 0.107.
For the sequence RRIRTRPPRLPRPRPRPQPCPRP, the “shrunken log2 fold change” value was -0.0212.
As to RRIRWRPPRLPRPRPRPMYGPRP, the “shrunken log2 fold change” value is -0.0856.
With RRIRARPPRLPRPRPRPRAWPRP, the “shrunken log2 fold change” value is 0.699.
As for RRIRVRPPRLPRPRPRPCKMPRP, the “shrunken log2 fold change” value is -0.159.
Turning to RRIRYRPPRLPRPRPRPQSNPRP, the “shrunken log2 fold change” value was -0.07.
In the case of RRIRARPPRLPRPRPRPKEYPRP it was -0.15; in that of RRIRSRPPRLPRPRPRPWVRPRP, 0.0976; in that of RRIRWRPPRLPRPRPRPDCWPRP, 0.967.
On to RRIRARPPRLPRPRPRPRCTPRP, for which the “shrunken log2 fold change” value came out at 0.392.
With RRIRFRPPRLPRPRPRPHDYPRP, the “shrunken log2 fold change” value is -0.323.
The figure for RRIRYRPPRLPRPRPRPADHPRP is -0.0872; for RRIRKRPPRLPRPRPRPMYMPRP it is -0.103; for RRIRNRPPRLPRPRPRPQWMPRP it is -0.0995.
As to RRIRGRPPRLPRPRPRPMAVPRP, the “shrunken log2 fold change” value turned out to be 0.773.
On to RRIRMRPPRLPRPRPRPERLPRP, for which the “shrunken log2 fold change” value worked out at 0.442.
Consider RRIRYRPPRLPRPRPRPEACPRP, for which the “shrunken log2 fold change” value was -0.0328.
In the case of RRIRIRPPRLPRPRPRPRHAPRP it was 0.128; in that of RRIRFRPPRLPRPRPRPCDPPRP, -0.0886.
As for RRIRSRPPRLPRPRPRPPKFPRP, the “shrunken log2 fold change” value was -0.479.
As to RRIRLRPPRLPRPRPRPCHSPRP, the “shrunken log2 fold change” value was -0.011.
Regarding RRIRLRPPRLPRPRPRPVLLPRP, the “shrunken log2 fold change” value turned out to be 0.0821.
Take RRIRKRPPRLPRPRPRPEVNPRP: the “shrunken log2 fold change” value is 3.37.

The values above are taken from the supplement of paper PMC9112550, “Optimization of the antimicrobial peptide Bac7 by deep mutational scanning” (BMC Biology, 2022).
